Measured values: PMC2667502 (2009)

Biological target: TrkB/P75NTR complex (Mus musculus, UniProt P15209)
Test: dose-response of neuronal survival in ventral midbrain cultures

Sequence of TrkB/P75NTR complex (P15209 32-821, chain 1 of 2): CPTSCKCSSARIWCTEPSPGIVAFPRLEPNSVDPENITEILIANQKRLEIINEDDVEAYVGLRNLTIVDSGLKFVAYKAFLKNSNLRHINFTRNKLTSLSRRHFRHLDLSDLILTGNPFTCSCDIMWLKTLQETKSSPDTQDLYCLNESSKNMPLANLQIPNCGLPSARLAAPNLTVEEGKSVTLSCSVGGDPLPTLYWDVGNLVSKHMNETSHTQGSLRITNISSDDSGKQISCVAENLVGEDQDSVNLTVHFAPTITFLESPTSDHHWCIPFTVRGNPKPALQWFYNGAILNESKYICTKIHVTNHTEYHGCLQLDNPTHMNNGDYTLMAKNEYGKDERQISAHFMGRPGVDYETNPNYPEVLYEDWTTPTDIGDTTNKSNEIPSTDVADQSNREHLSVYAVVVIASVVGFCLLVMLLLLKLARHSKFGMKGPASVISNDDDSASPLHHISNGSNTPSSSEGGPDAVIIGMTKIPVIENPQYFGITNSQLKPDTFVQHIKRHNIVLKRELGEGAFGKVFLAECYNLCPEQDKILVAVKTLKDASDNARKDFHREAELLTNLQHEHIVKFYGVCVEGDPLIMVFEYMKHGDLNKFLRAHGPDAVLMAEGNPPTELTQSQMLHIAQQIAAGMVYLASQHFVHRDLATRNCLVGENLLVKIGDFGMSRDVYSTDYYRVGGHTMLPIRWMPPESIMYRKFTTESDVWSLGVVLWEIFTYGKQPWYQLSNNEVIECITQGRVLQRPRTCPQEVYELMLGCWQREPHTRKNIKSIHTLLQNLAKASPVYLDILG
Sequence of TrkB/P75NTR complex (chain, as listed by the source, chain 2 of 2): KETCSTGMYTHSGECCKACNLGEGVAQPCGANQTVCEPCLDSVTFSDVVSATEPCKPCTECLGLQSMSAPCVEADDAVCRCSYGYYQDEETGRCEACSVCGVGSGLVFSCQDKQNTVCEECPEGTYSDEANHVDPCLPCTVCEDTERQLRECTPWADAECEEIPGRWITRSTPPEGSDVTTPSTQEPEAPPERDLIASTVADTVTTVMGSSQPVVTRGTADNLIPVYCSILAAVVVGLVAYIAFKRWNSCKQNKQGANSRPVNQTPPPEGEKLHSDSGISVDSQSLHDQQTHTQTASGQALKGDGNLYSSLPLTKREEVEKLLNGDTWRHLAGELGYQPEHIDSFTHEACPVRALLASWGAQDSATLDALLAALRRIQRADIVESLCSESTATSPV

B1: BDNF (protein)
chain: HSDPARRGELSVCDSISEWVTAADKKTAVDMSGGTVTVLEKVPVSKGQLKQYFYETKCNPMGYTKEGCRGIDKRHWNSQCRTTQSYVRALTMDSKKRIGWRFIRIDTSCVCTLTIKRGR
In the case of B1, the Kd is reported as roughly 2.5 nM.
